Data set [1] concerns the target T1, PcUP1 (Phytophthora capsici, UniProt A0A410UCT3).
T1 construct: gene up; homodimer, active site at the dimer interface (His19 and Arg59 from the neighbouring monomer)
T1 sequence (A0A410UCT3 1-296): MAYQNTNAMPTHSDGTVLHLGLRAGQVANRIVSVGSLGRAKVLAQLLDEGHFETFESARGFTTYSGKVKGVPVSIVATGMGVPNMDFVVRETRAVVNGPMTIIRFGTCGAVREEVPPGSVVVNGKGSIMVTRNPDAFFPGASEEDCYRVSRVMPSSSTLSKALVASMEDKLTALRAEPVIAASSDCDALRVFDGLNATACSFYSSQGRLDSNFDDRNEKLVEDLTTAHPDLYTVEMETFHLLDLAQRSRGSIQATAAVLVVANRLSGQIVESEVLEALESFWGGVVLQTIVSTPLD
As to the kind of experiment: X-ray crystal structure, […] Å. It counts as binding. The following applies: with 2'-deoxyuridine (also with thymidine, 6K8P); phosphate site; crystals grown in phosphate.

Substrate in data set [2]: O=c1ccn([C@@H]2O[C@H](CO)[C@@H](O)[C@H]2O)c(=O)[nH]1
Nature of the data set: HPLC of uracil formed, Michaelis-Menten fit. It counts as biochemical, Phytophthora capsici. The settings on record: phosphorolysis, uridine 0.25-5 mM, 10 mM Na2HPO4, pH 7.5, 25 °C, kcat assumes Et = 2.

Regarding `O=P(O)(O)O` [phosphate], the “X-ray crystal structure, 2.1 Å” value in data set [1] was “Arg59 is an important residue in the phosphate-bonding pocket, forming two hydrogen bonds”.

B1: PcUP2 (Phytophthora capsici) (protein)
chain: MAPNMDAVADATAQVHVRNSHILEMHSDVLFHIGLTCSQEERQQVANTFGDVKFFITGGSAERMTHFAQSVAKELGITTPYGYQLAPIGSTSRYTLFKVGPVLVANHGIGMPSISILLHEVTKLLEYAGAHGATYIRMGTSGGIGVEPGTVVITSEGVNNKLESVDEVAVLGSTVRRPSICSPEVREEIITAAKEVGLPYAVGKTLSCNDFYEGQGRLDGAICEYTLEDKMAFLQKLADAGVRNIEMEARLMAGFCHKLNIPVAVVCVTLLNRLNGDQVLSSHETLQDFERRPGAVLLHYIKSKVNASA
One may read the Km as the concentration of substrate that gives half-maximal velocity. The term kcat denotes the maximal rate divided by the concentration of active sites. For B1, in data set [2], the Km was 7.55 ± 0.6 mM and the kcat worked out at 1188 ± 90 s⁻¹.

B2: PcUP1 (Phytophthora capsici) (protein)
chain: MAYQNTNAMPTHSDGTVLHLGLRAGQVANRIVSVGSLGRAKVLAQLLDEGHFETFESARGFTTYSGKVKGVPVSIVATGMGVPNMDFVVRETRAVVNGPMTIIRFGTCGAVREEVPPGSVVVNGKGSIMVTRNPDAFFPGASEEDCYRVSRVMPSSSTLSKALVASMEDKLTALRAEPVIAASSDCDALRVFDGLNATACSFYSSQGRLDSNFDDRNEKLVEDLTTAHPDLYTVEMETFHLLDLAQRSRGSIQATAAVLVVANRLSGQIVESEVLEALESFWGGVVLQTIVSTPLD
notes: homodimer, active site at the dimer interface (His19 and Arg59 from the neighbouring monomer)
On to B2, for which, in data set [2], the Km amounted to 6.96 ± 1.52 mM and the kcat stood at 982 ± 152 s⁻¹.

The values above are taken from publication PMC7271239, “Structural and catalytic analysis of two diverse uridine phosphorylases in Phytophthora capsici” (Scientific Reports, 2020).
